Data as given in publication PMC4374754.

Experiments:
[1] = target: RecA D112R N113R, fluorescein-labelled (E. coli); test: fluorescence polarisation; 20 nM fluorescein-labelled RecA titrated with pol V in solution, no ssDNA (inactive complex); pol V standard reaction buffer (20 mM Tris pH 7.5, 8 mM MgCl2, 5 mM DTT, 0.1 mM EDTA, 25 mM sodium glutamate, 4% glycerol), 25°C; apparent Kd, one-site specific binding
[2] = target: RecA D112R, fluorescein-labelled (E. coli); test: as above
[3] = target: RecA D112R (E. coli)

B1: DNA polymerase V (UmuD′2C) (complex)
chain 1: MFALCDVNAFYASCETVFRPDLWGKPVVVLSNNDGCVIARNAEAKALGVKMGDPWFKQKDLFRRCGVVCFSSNYELYADMSNRVMSTLEELSPRVEIYSIDEAFCDLTGVRNCRDLTDFGREIRATVLQRTHLTVGVGIAQTKTLAKLANHAAKKWQRQTGGVVDLSNLERQRKLMSALPVDDVWGIGRRISKKLDAMGIKTVLDLADTDIRFIRKHFNVVLERTVRELRGEPCLQLEEFAPTKQEIICSRSFGERITDYPSMRQAICSYAARAAEKLRSEHQYCRFISTFIKTSPFALNEPYYGNSASVKLLTPTQDSRDIINAATRSLDAIWQAGHRYQKAGVMLGDFFSQGVAQLNLFDDNAPRPGSEQLMTVMDTLNAKEGRGTLYFAGQGIQQQWQMKRAMLSPRYTTRSSDLLRVK
chain 2: GFPSPAADYVEQRIDLNQLLIQHPSATYFVKASGDSMIDGGISDGDLLIVDSAITASHGDIVIAAVDGEFTVKKLQLRPTVQLIPMNSAYSPITISSEDTLDVFGVVIHVVKAMR
Kd [1]: 250 nM | Kd [2]: 250 nM | primer utilization in the pol V transactivation assay (RecA* on poly dT, hairpin primer-template, 1 h at 37°C) [3]: 27%
